Assay: soluble on expression in E. coli; label from the status in PepcDB or PDB records

Q: With “MGSDKIHHHHHHMQNLPIYLYPNTLDVILDSGATTKGVNRVMYQHELKIQKGIKNKVRIQFKNSDQKRIVTSGTYVFSMYDAINQRLLLEKPLDILDDGTTFALRGLAELTLTENDTMDLDVSKYQFSVKYLDEDGTYLPTYSNTYYGVTGTLNLLQDVYPVLQPSQEITSFDRTYDDSIQLYQWRSGNIYATPEFNGNSALHTIAMYMTGFKGKVLVQGTLYNTPSSFNRYVTLGRKRV” as the sequence, how does the “soluble on expression in E. coli” value read?
A: not soluble

Q: With “MAHHHHHHMWEETYVRACANLGVQPRNEVLAAVGGTAQLCGNTFANFENRLTDEELAALCETCRQISLVAVVRLPYNNITCRGATALAKAMKEGFSTLQYLDLSYNSINEEGANAIAAAATNYEMLSTLLLNGNPIGGGSGPCLKTLLESENTQLVTLDLEQTDQGLKSLVHIARGLVHNTTLTTLNLGRPLMTNPMDVSYVVEHLSLALKENRTLRFLGLSHFNMADCDLALLLSTLRDSAVTTLSLKGNKLSQASGEPLAQLLAHRPDFLSLDVTANRLRDVGALAIAAVIANHPGLRELQIGFNTIGGVGISALAQSLAANASITTLKLWGNDLTDESVRDLYAIRGRFESMEVTDFSFYVVDGCPMVARE” as the sequence, how does the “soluble on expression in E. coli” value read?
A: not soluble

Q: With “MTWKNFGFEIFGEKYGQEELEKRIKDEHTPPPDSPVFGGLKLKLKKEKFKTLFTLGTTLKGFRRATHTVGTGGIGEITIVNDPKFPEHEFFTAGRTFPARLRHANLKYPDDAGADARSFSIKFADSDSDGPLDIVMNTGEANIFWNSPSLEDFVPVEEGDAAEEYVYKNPYYYYNLVEALRRAPDTFAHLYYYSQVTMPFKAKDGKVRYCRYRALPGDVDIKEEDESGRLTEEEQRKIWIFSRHENEKRPDDYLRKEYVERLQKGPVNYRLQIQIHEASPDDTATIFHAGILWDKETHPWFDLAKVSIKTPLSPDVLEKTAFNIANQPASLGLLEAKSPEDYNSIGELRVAVYTWVQHLRKLKIGSLVPAGQNAIYNVEVETGDREHAGTDATITIRITGAKGRTDYLKLDKWFHNDFEAGSKEQYTVQGFDVGDIQLIELHSDGGGYWSGDPDWFVNRVIIISSTQDRVYSFPCFRWVIKDMVLFPGEATLPFNEVPAIVSEQRQKELEQRKLTYQWDYVSDDMPGNIKAKTHDDLPRDVQFTDEKSRSYQESRKAALVNLGIGSLFTMFENWDSYDDYHILYRNWILGGTPNMADRWHEDRWFGYQFLNGANPVILTRCDALPSNFPVTNEHVNASLDRGKNLDEEIKDGHIYIVDFKVLVGAKSYGGPVLEDIGYKVPDHLKHDEADIRYCAAPLALFYVNKLGHLMPIAIQINQEPGPENPIWTPHEENEHDWMMAKFWLGVAESNFHQLNTHLLRTHLTTESFALSTWRNLASAHPIFKLLQPHIYGVLAIDTIGRKELIGSGGIVDQSLSLGGGGHVTFMEKCFKEVNLQDYHLPNALKKRGVDDPSKLPGFYYRDDGLALWEAIETFIGEIIAIFYKNDDDVKRDNEIQSWIYDVHKNGWRVNPGHQDHGVPASFESREQLKEVLTSLVFTFSCQHAAVNFSQKDHYGFTPNAPAILRHPPPKKKGEATLQSILSTLPSKSQAAKAIATVYILTKFSEDERYLGNYSATAWEDKDALDAINRFQDKLEDISKKIKQRNENLEVPYIYLLPERIPNGTAI” as the sequence, how does the “soluble on expression in E. coli” value read?
A: soluble

Q: With “MPKNDLLLRSLRGEPIGRFPVWLMRQAGRYMPEYRKIRNRVKNFLELCKNVDLATEISLLPLKILGVDAIIIFSDILVPLEPLGVKVEFVEGEGPKLSWSGKVSDLKKYDPSQNAYVYEIIKRVKEAQDEVPVIGFAGAPFTLLSYLIEGGASKDFKSTKLFMWENPKEYKRLMDILTETVLAYLKEQIKAGADVVQIFDSWVNNLSLEDYGEYVYPYVNYLISELKDFSDTPVIYFFRGSSSFIDLAVDYRADALSVDWSVDIPELFKIYDKGFQGNLEPAVLYASEEVIEEKTLGLLRRIPVKTRYVFNLGHGLAPDMELEKVKYLVDLVKSFPLT” as the sequence, how does the “soluble on expression in E. coli” value read?
A: soluble

Q: For “MGSDKIHHHHHHMRVRSVTEEDYLKIIQELVLYQDYAQLSDIAKSLQVKRQSARDEINHLIDLGMVKKIDRGKYVLTDQGDIEANIFLRKHRTAEVLLSQCVGIEWDAVDREAMGIEHGMTEEIIHRVIERFNAKRCPHGNPIPSPEGYVEKIDDVRITDLNETGDVIISRIIYETDEILNYLYANQILPGAKVKIIRTGFPLQIEKDGRLLSLDPSIAKAIRVSSIK”, which “soluble on expression in E. coli” value is on record?
A: not soluble

Q: Which “soluble on expression in E. coli” value does the source give for “MSASKILSQKIKVALVQLSGSSPDKMANLQRAATFIERAMKEQPDTKLVVLPECFNSPYSTDQFRKYSEVINPKEPSTSVQFLSNLANKFKIILVGGTIPELDPKTDKIYNTSIIFNEDGKLIDKHRKVHLFDVDIPNGISFHESETLSPGEKSTTIDTKYGKFGVGICYDMRFPELAMLSARKGAFAMIYPSAFNTVTGPLHWHLLARSRAVDNQVYVMLCSPARNLQSSYHAYGHSIVVDPRGKIVAEAGEGEEIIYAELDPEVIESFRQAVPLTKQRRFDVYSDVNAH” here?
A: soluble

Q: Which “soluble on expression in E. coli” value does the source give for “MGHHHHHHSHMVSSNFWFKYPKTCSKVEHFVSILGKCFESPWTTKALSETACEDSEENKQRITGAQTLPKHVSTSSDEGSPSASTPMINKTGFKFSAEKPVIEVPSMTILDKKDGEQAKALFEKVRKFRAHVEDSDLIYKLYVVQTASPFPNQ” here?
A: not soluble

Q: Which “soluble on expression in E. coli” value does the source give for “MGSDKIHHHHHHMSETTGLQLRSLIKASGDLEVSLVPVSIPEPGPDEVVVRVEATPINPSDLGLLFGAADMSSAKASGTPDAPVITAKVPEAAMKAMAGRLDESMPVGNEGAGTVIKAGSSDAAQALLGKTVAMIGGAMYAQYRLIKAADCLKLQDGTTAAEGASCFVNPLTALGMTETMKREGHKALVHTAAASNLGQMLNRICLKDGIDLVNIVRSEAQAKLLREIGAKYVVDSTAPTFLDDLTEALVKTGATIAFDAIGGGRLAGQILGCMEAAIGKTATGPYSRYGSNVLKQVYIYGSLDTKPTEIVRNFGFAWAAGGWLLFPFLQKIGAADAAKLRARVAAEIKTTFASRYTKVVSLKEALTLDAIAIYNKRATGEKYLIDPTK” here?
A: not soluble

Q: Which “soluble on expression in E. coli” value does the source give for “AGLKLMGAPVKLTVSQGQPVKLNCSVEGMEEPDIQWVKDGAVVQNLDQLYIPVSEQHWIGFLSLKSVERSDAGRYWCQVEDGGETEISQPVWLTVEGVPFFTVEPKDLAVPPNAPFQLSCEAVGPPEPVTIVWWRGTTKIGGPAPSPSVLNVTGVTQSTMFSCEAHNLKGLASSRTATVHLQ” here?
A: soluble

Q: For “MSLTRIKLIATDVDGTFLNQQRTYNHNRFAAQLNRLSSASIRFVVASGNHLGHLKDVFAPTPQVQTFVAENGGLIVDHNRTLAEAQLPLPVVREVVQAILADQTLRPQLLRLSGAHGTYLNRQDRSLDEASQDYFFNNLVRVDDLTQVNDTIYKINGEWPNDSIQTIAAKLNAHFPGLINATASGFGSIDIVAPHMNKAVGLTQLAATWHITPAEIAAFGDNDNDREMLAHVGLGVAMRNGTDSVKEVADLITPHDNNHEGVLDVIDTILADEGHHHHHH”, which “soluble on expression in E. coli” value is on record?
A: soluble

Q: With “IVGLRVGAAAEFALSNDGFYLAPGLAYTMRGAKMESLSETTTRLHYLQIPVNAGMRFSFADNMAISLEAGPYFAYGVAGTIKTKVAGVTASVDAFGDNGYNRFDLGLGLSAALSYDRYYVQIGYEHGLLNMLKDAPDKTSLRNHDFFVGLGVRF” as the sequence, how does the “soluble on expression in E. coli” value read?
A: not soluble

Q: Which “soluble on expression in E. coli” value does the source give for “MKKVAIVGLGWLGMPLAMSLSARGWQVTGSKTTQDGVEAARMSGIDSYLLRMEPELVCDSDDLDALMDADALVITLPARRSGPGDEFYLQAVQELVDSALAHRIPRIIFTSSTSVYGDAQGTVKETTPRNPVTNSGRVLEELEDWLHNLPGTSVDILRLAGLVGPGRHPGRFFAGKTAPDGEHGVNLVHLEDVIGAITLLLQAPKGGHIYNICAPAHPARNVFYPQMARLLGLEPPQFRNSLDSGKGKIIDGSRICNELGFEYQYPDPLVMPLELEHHHHHH” here?
A: not soluble

Q: For “MSKDIRTVRPPVQLLPKAIIAVRPASTAKADLEVMAAQVAQLTTACCQENIQVDSIIITFGGIKDITKRVKQLTEQKDISYLIIYSGKQIAENESEYVNFKRDMQDWYYLKVVCYR”, which “soluble on expression in E. coli” value is on record?
A: not soluble

Q: Which “soluble on expression in E. coli” value does the source give for “MNDSTCPRPCLMKLDLQSSTNKLAFLKDNWPSFGQIESIDRLSETELRCTLCLLDVVLAALAKDECFCPNREIIRLVLTRTYVQNRCELCETEEIRSKLMKGFCTWEKKNGLSRKNEIRRRGISVFYGAILRMLSKVNGKQE” here?
A: not soluble

Reference: the DeepSol protein solubility set
